Laboratory results taken from patent US20210063414A1, “METHODS FOR PREVENTING AND/OR TREATING BONE LOSS CONDITIONS BY MODULATING IRISIN” (Dana-Farber Cancer Institute, Inc., priority 2018, published 2021).

Experiments:
Assay in all cases: Crosslinking/co-immunoprecipitation/mass spectrometry (TMT quantitative proteomics) to identify irisin receptors
Assay type in all cases: binding
[1] = target: T1, MLO-Y4 cell surface proteins (Mus musculus, UniProt P08249); conditions: co-precipitated protein Mdh2 (MDHM_MOUSE)
T1 construct: endogenous in cells; host or cells: MLO-Y4
T1 sequence (P08249 25-338): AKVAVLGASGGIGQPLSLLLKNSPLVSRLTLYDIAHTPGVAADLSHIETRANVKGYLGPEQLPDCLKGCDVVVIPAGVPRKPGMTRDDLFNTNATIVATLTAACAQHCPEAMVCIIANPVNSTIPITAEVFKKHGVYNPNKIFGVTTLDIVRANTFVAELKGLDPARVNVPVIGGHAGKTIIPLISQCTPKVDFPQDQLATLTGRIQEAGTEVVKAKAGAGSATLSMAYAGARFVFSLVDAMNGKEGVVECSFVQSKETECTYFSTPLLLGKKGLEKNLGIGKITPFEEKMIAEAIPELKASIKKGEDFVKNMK
Procedure: (§1) MLO-Y4 cells were seeded on 30×150 mm type-I collagen coated dishes as described in cell culture experiment. At 60% cell density, medium was switched to FreeStyle™ 293 Expression medium. After 4 hours incubation, the cells were chilled on ice for 10 minutes, followed by treatment of 10 nM his-tag irisin or his-tag adipsin for 20 minutes. The cells were then incubated with 1.5 mM DTSSP for 30 minutes on ice to do cross-linking, after washing with 15 ml cold PBS twice. The cross-linking was quenched by addition of a final concentration of 20 mM Tris-pH 7.5. The cells were then harvested and homogenized in 1 ml RIPA buffer containing proteaseinhibitor cocktailand phosphatase-inhibitor cocktail. Whole-cell lysates were homogenized by 10 times passages through a 22G needle fitted to a 3 ml syringe. Homogenized samples were rotated gently in cold room for 20 minutes followed by 15,000×g centrifugation for 10 minutes. After addition of a final concentration of 10 mM imidazole, supernatants were incubated with 100 μl Ni-NTA agarose for 1 hour. After centrifugation at 500×g for 1 minute, the supernatants were aspirated and 1 ml cold RIPA buffer containing 10 mM imidazole were added to the agarose. After 10 minutes rotation in cold room, the supernatants were aspirated and 1 ml cold RIPA buffer containing 30 mM imidazole were added to the agarose. After repeating the washing 3 times, 0.8 ml RIPA buffer containing 250 mM imidazole was added and the agarose was gently rotated in a cold room for 20 minutes. After centrifugation at 1000×g for 2 minutes, the supernatants were transferred to 1.5 ml tube and incubated with 100 μl 0.2% sodium deoxycholate and 100 μl 10% trichloroacetic acid in ice for 1 hour. After centrifugation at 12,000×g for 10 minutes at 4° C., the supernatants were removed and 1 ml cold acetone was added to the pellets followed by vortexing for 10 seconds. After one more washing with cold acetone, the pellets were dried at 37° C., and 39 μl PBS and 13 μl 4×NuPAGE LDS were added to the pellets with a final concentration of 5 mM DTT. Solubilized proteins were incubated at 65° C. for 20 minutes followed by incubation with a final concentration of 14 mM iodoacetamide for 45 minutes in the dark. 38 μl samples were loaded to 4-12% gradient SDS-PAGE for separation followed by Coomassie Blue staining. The gels were submitted to quantitative proteomics.
(§2) For in-gel digestions, gels were stained with Coomassie Blue and were excised into 8 equal segments for control and irisin lanes. Gel pieces were destained and dehydrated with 100% acetonitrile, vacuumed dried, and digested in 25 mM HEPES (pH 8.5) with 500 ng sequencing grade trypsin (Promega) and incubated for an overnight at 37° C. (Shevchenko et al. (1996) Anal. Chem. 68:850-858). Digests were treated with 1% formic acid and purified using C18 Stage-Tips as previously described (Rappsilber et al. (2007) Nat. Protoc. 2:1896-1906). Peptides were eluted with 70% acetonitrile and 1% formic acid, then dried using a speedvac. Isobaric labeling of digested peptides was accomplished using 6-plex tandem mass tag (TMT) reagents (Thermo Fisher Scientific, Rockford, Ill.). Reagents, 5.0 mg, were dissolved in 252 μl acetonitrile (ACN) and 5 μl of the solution was added to the digested peptides dissolved in 25 μl of 200 mM HEPES, pH 8.5. After 1 hour at room temperature, the reaction was quenched by adding 1 μl of 5% hydroxylamine. Labeled peptides were combined and acidified prior to C18 Stage-Tips desalting.
(§3) All LC-MS/MS experiments were performed on an Orbitrap Fusion™ Lumos mass spectrometer (Thermo Fisher Scientific, San Jose, Calif., USA) coupled with a Proxeon EASY-nLC™ 1200 LC pump (Thermo Fisher Scientific). Peptides were separated on a 100 μm inner diameter microcapillary column packed with 35 cm of Accucore™ C18 resin (1.8 μm, 100 Å, Thermo Fisher Scientific). […]

[2] = target: T2, MLO-Y4 cell surface proteins (Mus musculus, UniProt Q6ZQ93); conditions: co-precipitated protein Usp34 (UBP34_MOUSE)
T2 construct: endogenous in cells; host or cells: MLO-Y4
Procedure: as §1, §2, §3

[3] = target: T3, MLO-Y4 cell surface proteins (Mus musculus, UniProt Q9CY64); conditions: co-precipitated protein Blvra (BIEA_MOUSE)
T3 construct: endogenous in cells; host or cells: MLO-Y4
T3 sequence (Q9CY64 3-295): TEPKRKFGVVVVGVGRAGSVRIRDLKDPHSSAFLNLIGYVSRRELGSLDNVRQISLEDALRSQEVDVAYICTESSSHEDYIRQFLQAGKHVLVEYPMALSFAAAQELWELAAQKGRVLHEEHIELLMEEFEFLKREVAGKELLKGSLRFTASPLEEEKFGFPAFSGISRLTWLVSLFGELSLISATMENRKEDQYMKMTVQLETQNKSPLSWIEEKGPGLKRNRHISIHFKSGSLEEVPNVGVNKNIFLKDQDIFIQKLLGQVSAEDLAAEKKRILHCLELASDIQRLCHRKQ
Procedure: as §1, §2, §3

[4] = target: T4, MLO-Y4 cell surface proteins (Mus musculus, UniProt Q9Z2I9); conditions: co-precipitated protein Sucla2 (SUCB1_MOUSE)
T4 construct: endogenous in cells; host or cells: MLO-Y4
T4 sequence (Q9Z2I9 54-463): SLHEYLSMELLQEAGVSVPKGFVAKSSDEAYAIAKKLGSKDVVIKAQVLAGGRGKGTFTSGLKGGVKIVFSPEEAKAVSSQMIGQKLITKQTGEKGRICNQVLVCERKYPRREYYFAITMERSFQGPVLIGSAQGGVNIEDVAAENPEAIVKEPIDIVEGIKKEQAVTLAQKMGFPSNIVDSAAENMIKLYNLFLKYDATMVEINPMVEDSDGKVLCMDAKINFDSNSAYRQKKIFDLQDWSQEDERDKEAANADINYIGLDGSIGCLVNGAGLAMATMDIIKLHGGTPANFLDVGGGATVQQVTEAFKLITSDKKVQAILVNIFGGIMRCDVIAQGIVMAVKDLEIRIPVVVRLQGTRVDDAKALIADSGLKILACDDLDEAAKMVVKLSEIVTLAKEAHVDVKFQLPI
Procedure: as §1, §2, §3

T2 sequence (Q6ZQ93 whole entry): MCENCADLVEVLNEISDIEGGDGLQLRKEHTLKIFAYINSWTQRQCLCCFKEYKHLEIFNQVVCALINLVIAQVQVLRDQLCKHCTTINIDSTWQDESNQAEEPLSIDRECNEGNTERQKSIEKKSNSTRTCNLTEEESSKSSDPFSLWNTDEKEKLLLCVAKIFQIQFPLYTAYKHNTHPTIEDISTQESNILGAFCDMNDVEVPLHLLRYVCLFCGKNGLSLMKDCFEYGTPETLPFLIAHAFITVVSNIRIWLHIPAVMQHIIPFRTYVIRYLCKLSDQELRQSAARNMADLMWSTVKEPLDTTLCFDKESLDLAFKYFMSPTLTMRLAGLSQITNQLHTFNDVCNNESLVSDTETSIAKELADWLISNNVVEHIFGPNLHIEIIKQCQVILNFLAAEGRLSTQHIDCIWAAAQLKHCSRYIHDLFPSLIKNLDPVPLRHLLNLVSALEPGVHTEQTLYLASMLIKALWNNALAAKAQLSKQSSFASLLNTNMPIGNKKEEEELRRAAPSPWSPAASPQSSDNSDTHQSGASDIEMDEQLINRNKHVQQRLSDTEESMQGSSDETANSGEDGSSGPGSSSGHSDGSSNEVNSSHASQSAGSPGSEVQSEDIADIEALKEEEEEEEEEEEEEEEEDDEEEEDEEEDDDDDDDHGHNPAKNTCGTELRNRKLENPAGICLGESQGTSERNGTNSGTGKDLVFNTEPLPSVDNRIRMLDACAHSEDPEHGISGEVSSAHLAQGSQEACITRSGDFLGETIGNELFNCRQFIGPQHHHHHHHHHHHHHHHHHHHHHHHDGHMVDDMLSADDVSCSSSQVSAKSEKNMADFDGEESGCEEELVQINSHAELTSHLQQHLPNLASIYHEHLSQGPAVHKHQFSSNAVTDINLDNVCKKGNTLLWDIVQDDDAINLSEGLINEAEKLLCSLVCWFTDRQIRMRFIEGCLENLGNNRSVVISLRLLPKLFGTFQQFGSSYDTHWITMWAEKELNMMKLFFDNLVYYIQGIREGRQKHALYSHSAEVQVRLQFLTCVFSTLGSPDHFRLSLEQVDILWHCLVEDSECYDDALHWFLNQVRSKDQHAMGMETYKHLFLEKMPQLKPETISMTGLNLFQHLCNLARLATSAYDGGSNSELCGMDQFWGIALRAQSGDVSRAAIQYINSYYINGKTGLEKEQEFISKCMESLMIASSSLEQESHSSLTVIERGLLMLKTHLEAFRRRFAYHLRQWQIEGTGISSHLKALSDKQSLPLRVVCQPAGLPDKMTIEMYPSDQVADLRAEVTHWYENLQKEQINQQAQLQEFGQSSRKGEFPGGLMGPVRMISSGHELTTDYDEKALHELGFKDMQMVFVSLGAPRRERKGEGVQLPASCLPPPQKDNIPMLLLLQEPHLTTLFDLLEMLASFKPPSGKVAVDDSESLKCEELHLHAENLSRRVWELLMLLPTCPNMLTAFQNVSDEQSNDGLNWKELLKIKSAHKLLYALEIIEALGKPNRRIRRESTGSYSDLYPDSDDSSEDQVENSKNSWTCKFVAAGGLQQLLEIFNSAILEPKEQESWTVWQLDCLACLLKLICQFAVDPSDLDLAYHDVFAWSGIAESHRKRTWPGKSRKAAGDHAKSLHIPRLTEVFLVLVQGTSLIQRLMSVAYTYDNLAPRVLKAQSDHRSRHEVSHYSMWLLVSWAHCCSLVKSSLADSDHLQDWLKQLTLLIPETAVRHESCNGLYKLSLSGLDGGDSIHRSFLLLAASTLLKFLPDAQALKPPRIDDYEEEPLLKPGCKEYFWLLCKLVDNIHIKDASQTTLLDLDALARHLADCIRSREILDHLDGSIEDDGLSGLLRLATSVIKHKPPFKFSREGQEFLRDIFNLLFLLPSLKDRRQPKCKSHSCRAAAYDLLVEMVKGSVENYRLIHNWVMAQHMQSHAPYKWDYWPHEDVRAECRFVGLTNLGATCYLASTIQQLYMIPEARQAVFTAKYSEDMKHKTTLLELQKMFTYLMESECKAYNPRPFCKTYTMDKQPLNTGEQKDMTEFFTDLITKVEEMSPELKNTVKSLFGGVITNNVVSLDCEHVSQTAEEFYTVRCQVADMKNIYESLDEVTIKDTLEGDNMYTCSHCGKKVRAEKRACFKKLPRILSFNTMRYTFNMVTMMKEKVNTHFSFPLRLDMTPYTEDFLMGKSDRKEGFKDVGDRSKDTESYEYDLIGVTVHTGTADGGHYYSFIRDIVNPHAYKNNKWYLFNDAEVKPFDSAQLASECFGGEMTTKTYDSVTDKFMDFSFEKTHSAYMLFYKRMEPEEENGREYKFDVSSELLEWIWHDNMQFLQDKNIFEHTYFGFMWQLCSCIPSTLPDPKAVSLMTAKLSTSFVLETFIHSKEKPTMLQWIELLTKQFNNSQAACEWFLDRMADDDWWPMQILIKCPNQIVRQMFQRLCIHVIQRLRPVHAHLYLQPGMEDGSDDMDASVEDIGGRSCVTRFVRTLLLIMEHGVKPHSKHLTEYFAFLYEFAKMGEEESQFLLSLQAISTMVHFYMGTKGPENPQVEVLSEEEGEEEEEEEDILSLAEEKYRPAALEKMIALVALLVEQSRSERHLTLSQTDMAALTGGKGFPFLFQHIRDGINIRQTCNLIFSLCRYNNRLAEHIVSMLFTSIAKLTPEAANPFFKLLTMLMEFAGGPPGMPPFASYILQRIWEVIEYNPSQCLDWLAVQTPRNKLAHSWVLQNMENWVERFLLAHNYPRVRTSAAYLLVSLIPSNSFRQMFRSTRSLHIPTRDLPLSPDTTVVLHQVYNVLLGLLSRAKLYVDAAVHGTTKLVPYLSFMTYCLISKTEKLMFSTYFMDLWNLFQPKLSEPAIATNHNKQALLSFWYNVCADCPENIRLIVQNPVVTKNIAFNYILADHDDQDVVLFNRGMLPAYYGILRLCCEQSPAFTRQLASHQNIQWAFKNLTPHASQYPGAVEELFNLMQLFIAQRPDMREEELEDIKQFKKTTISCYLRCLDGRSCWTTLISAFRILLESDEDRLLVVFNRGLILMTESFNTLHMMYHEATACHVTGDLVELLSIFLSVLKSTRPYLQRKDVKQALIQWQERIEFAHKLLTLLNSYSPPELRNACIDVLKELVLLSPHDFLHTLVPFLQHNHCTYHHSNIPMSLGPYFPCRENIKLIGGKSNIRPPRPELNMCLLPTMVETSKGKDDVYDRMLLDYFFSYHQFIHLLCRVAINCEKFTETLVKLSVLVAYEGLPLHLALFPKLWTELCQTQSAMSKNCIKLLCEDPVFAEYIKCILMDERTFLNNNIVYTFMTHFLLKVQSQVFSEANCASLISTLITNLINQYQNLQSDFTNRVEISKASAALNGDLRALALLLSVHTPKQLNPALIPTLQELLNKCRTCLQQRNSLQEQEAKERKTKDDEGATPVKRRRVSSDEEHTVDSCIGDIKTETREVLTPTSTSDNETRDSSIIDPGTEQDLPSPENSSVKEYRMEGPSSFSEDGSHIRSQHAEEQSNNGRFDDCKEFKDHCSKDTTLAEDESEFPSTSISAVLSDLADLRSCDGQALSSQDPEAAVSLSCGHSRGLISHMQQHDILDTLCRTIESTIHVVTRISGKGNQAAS

B1: irisin: secreted cleaved form of FNDC5; recombinant human/mouse irisin with C-terminal his tag produced in HEK293 cells (protein)
chain: DSPSAPVNVTVRHLKANSAVVSWDVLEDEVVIGFAISQQKKDVRMLRFIQEVNTTTRSCALWDLEEDTEYIVHVQAISIQGQSPASEPVLFKTPREAEKMASKNKDEVTMKE
modifications: left off: small tags and cut ends
notes: secreted cleaved form of FNDC5; recombinant human/mouse irisin with C-terminal his tag produced in HEK293 cells
In the case of B1, the TMT signal-to-noise ratio [1] is reported as 858.89, the “irisin/adipsin TMT signal-to-noise ratio” value [1] is reported as 0.336 and the TMT signal-to-noise ratio [2] is reported as 98.0506. The “irisin/adipsin TMT signal-to-noise ratio” value [2] was 0.094, the TMT signal-to-noise ratio [3] was 86.0306 and the “irisin/adipsin TMT signal-to-noise ratio” value [3] was 0.284. For the same molecule, the TMT signal-to-noise ratio [4] was 19.8331 and the “irisin/adipsin TMT signal-to-noise ratio” value [4] was 0.390.
